# Reference: US20250092135A1 (NANJING LEADS BIOLABS, published 2025)
# T1: human MUC16 protein (ECT_TM huMuc16) on 293T cells (human)
# T1 chain: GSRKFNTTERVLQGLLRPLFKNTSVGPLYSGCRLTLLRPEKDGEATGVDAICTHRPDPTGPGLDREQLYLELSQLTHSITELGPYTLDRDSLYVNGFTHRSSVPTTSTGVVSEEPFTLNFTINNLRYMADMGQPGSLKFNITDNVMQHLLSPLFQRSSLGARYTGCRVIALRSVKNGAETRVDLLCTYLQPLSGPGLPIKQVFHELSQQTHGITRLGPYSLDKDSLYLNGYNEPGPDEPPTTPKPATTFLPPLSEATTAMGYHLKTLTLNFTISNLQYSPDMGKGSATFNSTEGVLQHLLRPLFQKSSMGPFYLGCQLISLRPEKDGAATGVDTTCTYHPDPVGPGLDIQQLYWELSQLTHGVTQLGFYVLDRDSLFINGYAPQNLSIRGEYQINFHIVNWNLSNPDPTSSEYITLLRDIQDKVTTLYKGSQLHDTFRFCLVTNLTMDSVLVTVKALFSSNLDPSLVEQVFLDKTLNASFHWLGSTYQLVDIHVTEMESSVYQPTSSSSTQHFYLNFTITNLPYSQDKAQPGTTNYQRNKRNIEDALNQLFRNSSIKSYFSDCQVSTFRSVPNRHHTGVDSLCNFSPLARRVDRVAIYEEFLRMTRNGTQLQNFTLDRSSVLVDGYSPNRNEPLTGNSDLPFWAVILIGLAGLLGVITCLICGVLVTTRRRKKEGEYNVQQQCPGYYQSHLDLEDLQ
# T2: rhesus monkey MUC16 protein (ECT_TM RhMuc16) on 293T cells (rhesus monkey)
# T2 chain: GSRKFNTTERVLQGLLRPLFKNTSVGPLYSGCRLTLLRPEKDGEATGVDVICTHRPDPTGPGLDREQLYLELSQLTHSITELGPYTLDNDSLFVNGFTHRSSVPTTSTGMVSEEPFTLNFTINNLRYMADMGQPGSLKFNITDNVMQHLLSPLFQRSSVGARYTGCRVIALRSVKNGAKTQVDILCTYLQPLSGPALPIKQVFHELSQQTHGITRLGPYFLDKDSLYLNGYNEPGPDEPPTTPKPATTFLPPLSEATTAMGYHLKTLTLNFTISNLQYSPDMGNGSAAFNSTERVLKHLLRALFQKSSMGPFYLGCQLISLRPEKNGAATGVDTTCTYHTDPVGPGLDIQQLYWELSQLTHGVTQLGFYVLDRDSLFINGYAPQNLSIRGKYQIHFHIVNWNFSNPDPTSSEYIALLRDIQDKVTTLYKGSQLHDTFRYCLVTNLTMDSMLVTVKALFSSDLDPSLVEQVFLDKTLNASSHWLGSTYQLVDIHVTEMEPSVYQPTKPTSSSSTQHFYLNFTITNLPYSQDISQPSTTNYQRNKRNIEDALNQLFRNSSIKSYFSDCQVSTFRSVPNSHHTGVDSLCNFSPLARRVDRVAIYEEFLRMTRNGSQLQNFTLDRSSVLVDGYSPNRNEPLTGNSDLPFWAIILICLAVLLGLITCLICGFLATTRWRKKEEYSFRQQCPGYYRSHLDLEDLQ
# B1: humanized anti-MUC16 antibody Hu-L4H7 (antibody, human IgG1, kappa, L234A L235A, V domains shown)
# VH: QVQLVQSGAEVKKPGASVKVSCKASGYTFTDYNIHWVRQAPGQGLEWMGYIYPYNGVSDYNQNFKSRVTMTTDTSTSTAYMELRSLRSDDTAVYYCARWDFGSGYYFDYWGQGTLVTVSS
# VL: EIVLTQSPATLSLSPGERATLSCRASSSVIYMSWYQQKPGQAPRLLIYGTSTLASGIPARFSGSGSGTDFTLTISSLEPEDFAVYYCQQWSSNPFTFGQGTKLEIKR
# notes: human IgG1 with L234A, L235A, D265A, P329A and kappa; Biotinylated in the CA125 ELISA; also called humanized MUC-16 antibody
# B2: anti-MUC16 antibody 776.1(C33S) (antibody, human IgG1, kappa, L234A L235A, V domains shown)
# VH: EVQLQQSGPELVKPGASVKISCKASGYTFTDYNIHWVKQSHGKILEWIGYIYPYNGVSDYNQNFKSKATLIVDNSSNTAYMELRSLTSEDSAVYYCARWDFGSGYYFDYWGQGTTLTVSS
# VL: QIVLSQSPAILFASPGETVTMTCRASSSVIYMSWNQQKPGSSPKPWIYGTSTLASGVPTRFSGSGSGTSYSLTISRVEAEDAATYYCQQWSSNPFTFGSGTKLEIKR
# B3: anti-CD3/MUC16 bispecific antibody MCH7-23L2-MCH7 (bispecific antibody, human IgG1, kappa, L234A L235A)
# heavy 1: QVQLVQSGAEVKKPGASVKVSCKASGYTFTDYNIHWVRQAPGQGLEWMGYIYPYNGVSDYNQNFKSRVTMTTDTSTSTAYMELRSLRSDDTAVYYCARWDFGSGYYFDYWGQGTLVTVSSASTKGPSVFPLAPSSKSTSGGTAALGCLVKDYFPEPVTVSWNSGALTSGVHTFPAVLQSSGLYSLSSVVTVPSSSLGTQTYICNVNHKPSNTKVDKKVEPKSCEVQLVESGGGLVQPGGSLKLSCAASGFTFSTYAMNWVRQAPGKGLEWVGRIRSKYNNYATYYADSVKDRFTISRDDSKNTLYLQMNSLKTEDTAVYYCTRHGNFGNSYVSWFAYWGQGTTVTVSSGGGGSGGGGSGGGGSQAVVTQEPSLTVSPGGTVTLTCRSSTGAVTTSNYANWVQQKPGQAPRGLIGGTNKRAPGVPARFSGSLLGGKAALTLSGAQPEDEAEYFCALWYSNLWVFGGGTKLTVLGEPKSSDKTHTCPPCPAPEAAGGPSVFLFPPKPKDTLMISRTPEVTCVVVAVSHEDPEVKFNWYVDGVEVHNAKTKPREEQYNSTYRVVSVLTVLHQDWLNGKEYKCKVSNKALAAPIEKTISKAKGQPREPQVCTLPPSRDELTKNQVSLSCAVKGFYPSDIAVEWESNGQPENNYKTTPPVLDSDGSFFLVSKLTVDKSRWQQGNVFSCSVMHEALHNHYTQKSLSLSPGK
# heavy 2: not shown
# light: EIVLTQSPATLSLSPGERATLSCRASSSVIYMSWYQQKPGQAPRLLIYGTSTLASGIPARFSGSGSGTDFTLTISSLEPEDFAVYYCQQWSSNPFTFGQGTKLEIKRTVAAPSVFIFPPSDEQLKSGTASVVCLLNNFYPREAKVQWKVDNALQSGNSQESVTEQDSKDSTYSLSSTLTLSKADYEKHKVYACEVTHQGLSSPVTKSFNRGEC
# notes: MCH7-23L2ScFv-Hole (VH-CH1-scFv-Fc) + MCH7-KIH-Knob + two light chains MCL4 LC
# What was measured:
# [1] = biological target: T1, human MUC16 protein (ECT_TM huMuc16) on …; assay: cell binding on 293T/hMUC16 cells, read as MFI (the legend calls it ELISA); EC50 table under the plot, unit from the axis Conc.(nM)
# [2] = biological target: T3, human MUC16 protein endogenously expressed on cells (human, UniProt Q8WXI7 1-14507); assay: flow cytometry, OVCAR3 cells (endogenous human MUC16), PE anti-human IgG Fc secondary, MFI; EC50 table under the plot, unit from the axis Conc.(nM)
# T3 construct: whole, on cells; also called MUC16 on OVCAR3 cells; MUC16 in ovarian carcinoma tissue
# Description: (1) Whether the anti-CD3/anti-MUC16 bispecific antibodies in the present invention could bind to the MUC16 protein endogenously expressed on human ovarian carcinoma cells (OVCAR3) (Cell Bank of Type Culture Collection Committee of the Chinese Academy of Sciences, Cat #TCHu228) was determined by cell binding experiments.
# The experiments were performed using flow cytometry. OVCAR3 cells were digested, centrifuged and collected. The cells were resuspended in a PBS solution, and seeded into a 96-well plate (Corning, Cat #3799) at 1×10⁵ cells/well. The 96-well plate was centrifuged and then the supernatant was discarded. 100 μL of the serially diluted test bispecific antibody (at a maximum concentration of 200 nM, 5-fold dilution from 100 nM, 9 concentration points in total) was added to the OVCAR3 cells. The plate was incubated at 4° C. for 30 min and centrifuged (1000 rpm, 5 min), and then the supernatant was discarded. 100 μL of PBS solution was added to each well, and the cells were washed twice. 100 μL of fluorescent secondary antibody R-PE-conjugated AffiniPure Goat Anti-Human IgG, Fcγ Fragment Specific (Jackson ImmunoResearch, Cat #109-116-098) diluted in a ratio of 1:200 was then added. The cells were incubated at 4° C. for 30 min. After the cells were washed twice with the PBS solution, 100 μL of PBS solution was added to each well to resuspend the cells, and finally, fluorescence signals were detected using a BD Accuri C5 (BD Bioscience) flow cytometer according to the manufacturer's instructions. REGN4018 was used as a positive control.
# [3] = biological target: T2, rhesus monkey MUC16 protein (ECT_TM …); assay: flow cytometry, 293T/rhesus MUC16 cells as printed on the sheet and in the legend (the example, paragraph 611, speaks of cynomolgus MUC16), PE anti-human IgG Fc secondary, MFI; EC50 table under the plot, unit from the axis Conc.(nM); curve still rising at the top concentration of 100 nM
# Description: Referring to the flow cytometry described above, the serially diluted test bispecific antibody (at an initial concentration of 100 nM, 5-fold dilution, 9 points) was added to the cells, and the plate was incubated at 4° C. for 30 min. The cells were washed twice with PBS, and then fluorescent secondary antibody R-PE-conjugated AffiniPure Goat Anti-Human IgG, Fcγ Fragment Specific was added. The cells were incubated at 4° C. for 30 min. The cells were washed twice with PBS and then resuspended, and finally, fluorescence signals were detected using a BD Accuri C5 (BD Bioscience) flow cytometer.
# [4] = biological target: T2, rhesus monkey MUC16 protein (ECT_TM …); assay: flow cytometry, 293T/rhesus MUC16 cells, PE anti-human IgG Fc secondary, MFI; EC50 table under the plot, unit from the axis Conc.(nM)
# Description: The serially diluted anti-human MUC16 antibodies (at an initial concentration of 200 nM, 4-fold dilution, 8 points in total) obtained in the present application were added to the cells, and the cells were incubated at 4° C. for 30 min. The cells were washed twice with PBS, and then fluorescent secondary antibody R-PE-conjugated AffiniPure Goat Anti-Human IgG, Fcγ Fragment Specific (Jackson ImmunoResearch, Cat #109-116-098) was added. The cells were incubated at 4° C. for 30 min. The cells were washed twice with PBS and then resuspended, and finally, fluorescence signals were detected using a BD Accuri C5 (BD Bioscience) flow cytometer.
Binder,EC50 [1] [nM],EC50 [2] [nM],EC50 [3] [nM],EC50 [4] [nM]
B1,2.28,2.73,59.4,–
B2,6.67,–,–,5.01
B3,–,4.21,52.2,–
